{
  "source": "the Human Domainome abundance scans (Beltran et al. 2025)",
  "parents": {"B1": {"name": "Transcription elongation regulator 1-like protein, residues 448 to 504; numbered along this chain, Q5VWI1 (parent)", "chain": "LPLEERVTHFRDMLLERGVSAFSTWEKELHKIVFDPRYLLLNSEERKQIFEQFVKTR"}},
  "note": "± gives the uncertainty stated by the source.",
  "data": [
    {"variants_of": "B1", "assay": "abundance fitness (aPCA) (normalised: wild type 0, dead -1); higher = more abundant; growth selection in yeast, the domain comes from the species named", "settings": "Homo sapiens", "values": [
      {"variant": "LPLEERVTHFRDFLLERGVSAFSTWEKELHKIVFDPRYLLLNSEERKQIFEQFVKTR", "abundance fitness": "-0.765 ± 0.46"},
      {"variant": "LPLEERVTHFRDILLERGVSAFSTWEKELHKIVFDPRYLLLNSEERKQIFEQFVKTR", "abundance fitness": "-0.623 ± 0.17"},
      {"variant": "LPLEERVTHFRDKLLERGVSAFSTWEKELHKIVFDPRYLLLNSEERKQIFEQFVKTR", "abundance fitness": "-0.555 ± 0.42"},
      {"variant": "LPLEERVTHFRDWLLERGVSAFSTWEKELHKIVFDPRYLLLNSEERKQIFEQFVKTR", "abundance fitness": "-0.08 ± 0.31"},
      {"variant": "LPLEERVTHFRDRLLERGVSAFSTWEKELHKIVFDPRYLLLNSEERKQIFEQFVKTR", "abundance fitness": "-0.7 ± 0.26"},
      {"variant": "LPLEERVTHFRDCLLERGVSAFSTWEKELHKIVFDPRYLLLNSEERKQIFEQFVKTR", "abundance fitness": "-0.804 ± 0.16"},
      {"variant": "LPLEERVTHFRDVLLERGVSAFSTWEKELHKIVFDPRYLLLNSEERKQIFEQFVKTR", "abundance fitness": "-0.327 ± 0.13"},
      {"variant": "LPLEERVTHFRDTLLERGVSAFSTWEKELHKIVFDPRYLLLNSEERKQIFEQFVKTR", "abundance fitness": "-0.759 ± 0.14"},
      {"variant": "LPLEERVTHFRDSLLERGVSAFSTWEKELHKIVFDPRYLLLNSEERKQIFEQFVKTR", "abundance fitness": "-0.743 ± 0.29"},
      {"variant": "LPLEERVTHFRDELLERGVSAFSTWEKELHKIVFDPRYLLLNSEERKQIFEQFVKTR", "abundance fitness": "-0.582 ± 0.3"},
      {"variant": "LPLEERVTHFRDPLLERGVSAFSTWEKELHKIVFDPRYLLLNSEERKQIFEQFVKTR", "abundance fitness": "-0.257 ± 0.39"},
      {"variant": "LPLEERVTHFRDALLERGVSAFSTWEKELHKIVFDPRYLLLNSEERKQIFEQFVKTR", "abundance fitness": "-0.896 ± 0.15"},
      {"variant": "LPLEERVTHFRDLLLERGVSAFSTWEKELHKIVFDPRYLLLNSEERKQIFEQFVKTR", "abundance fitness": "-0.415 ± 0.12"},
      {"variant": "LPLEERVTHFPDMLLERGVSAFSTWEKELHKIVFDPRYLLLNSEERKQIFEQFVKTR", "abundance fitness": "0.183 ± 0.22"},
      {"variant": "LPLEERVTHFTDMLLERGVSAFSTWEKELHKIVFDPRYLLLNSEERKQIFEQFVKTR", "abundance fitness": "-0.15 ± 0.32"},
      {"variant": "LPLEERVTHFMDMLLERGVSAFSTWEKELHKIVFDPRYLLLNSEERKQIFEQFVKTR", "abundance fitness": "-0.411 ± 0.29"},
      {"variant": "LPLEERVTHFSDMLLERGVSAFSTWEKELHKIVFDPRYLLLNSEERKQIFEQFVKTR", "abundance fitness": "-0.695 ± 0.32"},
      {"variant": "LPLEERVTHFQDMLLERGVSAFSTWEKELHKIVFDPRYLLLNSEERKQIFEQFVKTR", "abundance fitness": "-0.244 ± 0.15"},
      {"variant": "LPLEERVTHFKDMLLERGVSAFSTWEKELHKIVFDPRYLLLNSEERKQIFEQFVKTR", "abundance fitness": "-0.204 ± 0.21"},
      {"variant": "LPLEERVTHFFDMLLERGVSAFSTWEKELHKIVFDPRYLLLNSEERKQIFEQFVKTR", "abundance fitness": "-0.248 ± 0.4"},
      {"variant": "LPLEERVTHFVDMLLERGVSAFSTWEKELHKIVFDPRYLLLNSEERKQIFEQFVKTR", "abundance fitness": "-0.626 ± 0.3"},
      {"variant": "LPLEERVTHFGDMLLERGVSAFSTWEKELHKIVFDPRYLLLNSEERKQIFEQFVKTR", "abundance fitness": "-0.586 ± 0.26"},
      {"variant": "LPLEERVTHFLDMLLERGVSAFSTWEKELHKIVFDPRYLLLNSEERKQIFEQFVKTR", "abundance fitness": "-0.396 ± 0.17"},
      {"variant": "LPLEERVTHFWDMLLERGVSAFSTWEKELHKIVFDPRYLLLNSEERKQIFEQFVKTR", "abundance fitness": "-0.365 ± 0.32"},
      {"variant": "LPLEERVTHFYDMLLERGVSAFSTWEKELHKIVFDPRYLLLNSEERKQIFEQFVKTR", "abundance fitness": "-0.259 ± 0.4"},
      {"variant": "LPLEERVTHFRDMMLERGVSAFSTWEKELHKIVFDPRYLLLNSEERKQIFEQFVKTR", "abundance fitness": "-0.066 ± 0.33"},
      {"variant": "LPLEERVTHFRDMRLERGVSAFSTWEKELHKIVFDPRYLLLNSEERKQIFEQFVKTR", "abundance fitness": "-0.739 ± 0.11"},
      {"variant": "LPLEERVTHFRDMKLERGVSAFSTWEKELHKIVFDPRYLLLNSEERKQIFEQFVKTR", "abundance fitness": "-0.905 ± 0.34"},
      {"variant": "LPLEERVTHFRDMWLERGVSAFSTWEKELHKIVFDPRYLLLNSEERKQIFEQFVKTR", "abundance fitness": "-0.093 ± 0.21"},
      {"variant": "LPLEERVTHFRDMALERGVSAFSTWEKELHKIVFDPRYLLLNSEERKQIFEQFVKTR", "abundance fitness": "-0.701 ± 0.12"},
      {"variant": "LPLEERVTHFRDMFLERGVSAFSTWEKELHKIVFDPRYLLLNSEERKQIFEQFVKTR", "abundance fitness": "-0.817 ± 0.44"},
      {"variant": "LPLEERVTHFRDMCLERGVSAFSTWEKELHKIVFDPRYLLLNSEERKQIFEQFVKTR", "abundance fitness": "-0.561 ± 0.4"},
      {"variant": "LPLEERVTHFRDMTLERGVSAFSTWEKELHKIVFDPRYLLLNSEERKQIFEQFVKTR", "abundance fitness": "-0.528 ± 0.34"},
      {"variant": "LPLEERVTHFRDMVLERGVSAFSTWEKELHKIVFDPRYLLLNSEERKQIFEQFVKTR", "abundance fitness": "-0.967 ± 0.34"},
      {"variant": "LPLEERVTHFRDMGLERGVSAFSTWEKELHKIVFDPRYLLLNSEERKQIFEQFVKTR", "abundance fitness": "-0.751 ± 0.18"},
      {"variant": "LPLEERVTHFRDMSLERGVSAFSTWEKELHKIVFDPRYLLLNSEERKQIFEQFVKTR", "abundance fitness": "-0.831 ± 0.12"},
      {"variant": "LPLEERVTHFRDMHLERGVSAFSTWEKELHKIVFDPRYLLLNSEERKQIFEQFVKTR", "abundance fitness": "-0.997 ± 0.43"},
      {"variant": "LPLEERVTHFRDMDLERGVSAFSTWEKELHKIVFDPRYLLLNSEERKQIFEQFVKTR", "abundance fitness": "-0.484 ± 0.22"},
      {"variant": "LPLEERVTHFRDMPLERGVSAFSTWEKELHKIVFDPRYLLLNSEERKQIFEQFVKTR", "abundance fitness": "-0.251 ± 0.42"},
      {"variant": "LPLEERVTHFRDMLEERGVSAFSTWEKELHKIVFDPRYLLLNSEERKQIFEQFVKTR", "abundance fitness": "0.351 ± 0.26"},
      {"variant": "LPLEERVTHFRDMLAERGVSAFSTWEKELHKIVFDPRYLLLNSEERKQIFEQFVKTR", "abundance fitness": "-0.226 ± 0.19"},
      {"variant": "LPLEERVTHFRDMLVERGVSAFSTWEKELHKIVFDPRYLLLNSEERKQIFEQFVKTR", "abundance fitness": "-0.207 ± 0.15"},
      {"variant": "LPLEERVTHFRDMLNERGVSAFSTWEKELHKIVFDPRYLLLNSEERKQIFEQFVKTR", "abundance fitness": "-0.154 ± 0.37"},
      {"variant": "LPLEERVTHFRDMLGERGVSAFSTWEKELHKIVFDPRYLLLNSEERKQIFEQFVKTR", "abundance fitness": "-0.273 ± 0.11"},
      {"variant": "LPLEERVTHFRDMLSERGVSAFSTWEKELHKIVFDPRYLLLNSEERKQIFEQFVKTR", "abundance fitness": "0.054 ± 0.1"},
      {"variant": "LPLEERVTHFRDMLPERGVSAFSTWEKELHKIVFDPRYLLLNSEERKQIFEQFVKTR", "abundance fitness": "-0.548 ± 0.28"}
    ]}
  ]
}
